The values below come from US20130230868A1 (SIEMENS HEALTHCARE DIAGNOSTICS, published 2013).

Experiment [1] addresses recombinant gain-of-function GPIbα protein fragment (amino acids 1-285 with amino acid substitutions G233V and M239V) (human) (UniProt P07359). Description: latex particle agglutination (turbidimetry, 570 nm); inhibition of VWF-GPIbα complex formation by 10 µg/ml AK2 in normal plasma pool.
For experiment [2] the target is unchanged. Description: latex particle agglutination (turbidimetry, 570 nm); inhibition of VWF-GPIbα complex formation by 20 µg/ml AK2 in normal plasma pool.
Experiment [3] has as its target T1, von Willebrand factor (VWF) in plasma (human, UniProt P04275 764-2813).
T1 construct: mature; Native multimeric VWF present in plasma, not purified; The number of monomers per multimer varies; also called VWF protein
Description: latex particle agglutination, turbidimetry at 570 nm. The method, then:
The sample used was human citrated plasma from six different donors. 60 μl of sample were mixed with 20 μl of plasma containing VWF (91% of norm VWF, control plasma N, Siemens Healthcare Diagnostics Products GmbH, Marburg, Germany), 13 μl of a solution containing a recombinant gain-of-function GPIbα protein fragment (amino acids 1-285 with amino acid substitutions G233V and M239V; 8.4 μg/ml) and 70 μl of an NaCl buffer and incubated for two minutes. Subsequently, 40 μl of a latex particle reagent containing latex particles coated with anti-GPIbα antibodies were added to the assay mix.
Absorbance at 570 nm of the reaction mixture was measured turbidimetrically. Binding of VWF to GPIbα and binding of the GPIbα protein to the latex particles result in particle agglutination. This agglutination leads to an increase in absorbance, the maximum rate of which is determined (mU/min).

As to anti-GPIb antibody AK2, the Rate of agglutination in experiment [1] worked out at 266 mU/min; in experiment [2], 133 mU/min.

B1: recombinant gain-of-function GPIbα protein fragment (amino acids 1-285 with amino acid substitutions G233V and M239V) (receptor)
chain: HPICEVSKVASHLEVNCDKRNLTALPPDLPKDTTILHLSENLLYTFSLATLMPYTRLTQLNLDRCELTKLQVDGTLPVLGTLDLSHNQLQSLPLLGQTLPALTVLDVSFNRLTSLPLGALRGLGELQELYLKGNELKTLPPGLLTPTPKLEKLSLANNNLTELPAGLLNGLENLDTLLLQENSLYTIPKGFFGSHLLPFAFLHGNPWLCNCEILYFRRWLQDNAENVYVWKQVVDVKAVTSNVASVQCDNSDKFPVYKYPGKGCPTLGDEGDTDLYDYYPEEDTE
For B1, in experiment [3], the binding result is listed as “binds”.
